Test results reported in patent US20220324953A1 (JIANGSU HENGRUI MEDICINE, published 2022).

T1: Mouse CTGF protein-His tag (mouse, UniProt P29268 26-348)
T1 construct: C-terminal His tag; also called mouse CTGF-his protein; mouse CTGF fusion protein
T1 sequence: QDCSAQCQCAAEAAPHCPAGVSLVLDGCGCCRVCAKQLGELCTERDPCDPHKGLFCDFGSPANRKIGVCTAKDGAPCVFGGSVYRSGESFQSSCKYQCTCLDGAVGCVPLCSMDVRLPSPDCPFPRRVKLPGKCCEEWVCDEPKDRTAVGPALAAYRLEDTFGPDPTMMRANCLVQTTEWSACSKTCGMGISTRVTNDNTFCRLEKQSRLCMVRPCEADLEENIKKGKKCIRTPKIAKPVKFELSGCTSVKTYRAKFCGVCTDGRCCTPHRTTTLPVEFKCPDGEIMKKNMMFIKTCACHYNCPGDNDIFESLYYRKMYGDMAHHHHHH

T2: human CTGF protein (R&D, Cat No. 9190-CC) (human, UniProt P29279 27-349)
T2 construct: Bought protein; also called CTGF recombinant protein; CTGF (R&D)
T2 sequence: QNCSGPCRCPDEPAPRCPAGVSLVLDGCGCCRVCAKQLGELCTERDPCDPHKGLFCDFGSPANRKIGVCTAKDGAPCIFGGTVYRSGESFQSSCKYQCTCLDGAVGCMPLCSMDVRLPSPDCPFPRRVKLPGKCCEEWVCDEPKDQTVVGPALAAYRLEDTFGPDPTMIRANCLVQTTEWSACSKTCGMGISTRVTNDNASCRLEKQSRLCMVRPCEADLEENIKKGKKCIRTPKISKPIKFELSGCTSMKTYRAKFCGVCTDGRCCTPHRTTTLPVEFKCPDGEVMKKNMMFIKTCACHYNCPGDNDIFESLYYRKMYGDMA


What was measured:
[1] = target: T1, Mouse CTGF protein-His tag; assay: ELISA, plate coated with mouse CTGF-his
Description: The binding activity of anti-mouse CTGF antibody to mouse CTGF protein was tested by ELISA assay. A 96-well microtiter plate was directly coated with the mouse CTGF fusion protein. The signal strength upon the addition of the antibody was used to determine the binding activity of the antibody to mouse CTGF. The specific experimental procedures were as follows:
The mouse CTGF-his protein was diluted with PBS, pH 7.4 (Shanghai Yuanpei, Cat No. B320) buffer to a concentration of 0.5 μg/ml, added into the 96-well microtiter plate (Corning, Cat No. CLS3590-100EA) at 50 μl/well, and incubated in an incubator at 37° C. for 2 hours. The liquid was removed, 250 μl/well blocking solution (5% skim milk (BD skim milk, Cat No. 232100) diluted in PBS) was added, and incubated in an incubator at 37° C. for 3 hours or at 4° C. overnight (16-18 hours) for blocking. After the blocking was finished, the blocking solution was removed, the plate was washed for 3 times with PBST buffer (PBS containing 0.1% Tween-20, pH 7.4), 50 μl/well of various concentrations of each of the test antibodies (antibodies purified from hybridoma or humanized antibodies) diluted with sample dilution solution were added, and incubated in an incubator at 37° C. for 1 hours. After the incubation was finished, the plate was washed for 3 times with PBST, 50 μl/well of HRP-labeled goat anti-mouse secondary antibody (Jackson Immuno Research, Cat No. 115-035-003) or goat anti-human secondary antibody (Jackson Immuno Research, Cat No. 109-035-003) diluted with sample dilution solution was added, and incubated at 37° C. for 1 hour. The plate was washed for 5 times with PBST, 50 μl/well of TMB chromogenic substrate (KPL, Cat No. 52-00-03) was added, incubated at room temperature for 5-10min, and 50 μl/well of 1 M H₂SO₄ was added to stop the reaction. The absorbance value was read by a microplate reader (Molecular Devices, VERSA max) at a wavelength of 450 nm, and the data was analyzed with GraphPad Prism 5. The binding of CTGF antibody to mouse CTGF protein was calculated as EC50 value.

[2] = target: T2, human CTGF protein (R&D, Cat No. …); assay: ELISA, plate coated with CTGF (R&D 9190-CC)
Description: The binding activity of anti-human CTGF antibody to human CTGF protein was tested by ELISA assay and Biacore. A 96-well microtiter plate was directly coated with the CTGF recombinant protein. The signal strength upon the addition of the antibody was used to determine the binding activity of the antibody to CTGF. The specific experimental procedures were as follows:
The CTGF protein (R&D, Cat No. 9190-CC) was diluted with PBS, pH 7.4 (Shanghai Yuanpei, Cat No. B320) buffer to a concentration of 0.2 μg/ml, 50 μl/well of which was added into the 96-well microtiter plate (Corning, Cat No. CLS3590-100EA), and incubated in an incubator at 37° C. for 2 hours or at 4° C. overnight (16-18 hours). The liquid was removed, 250 μl/ well blocking solution (5% skim milk (BD skim milk, Cat No.232100) diluted in PBS) was added, and incubated in an incubator at 37° C. for 3 hours or at 4° C. overnight (16-18 hours) for blocking. After the blocking was finished, the blocking solution was removed, the plate was washed for 5 times with PBST buffer (PBS containing 0.1% Tween-20, pH 7.4), 50 μl/well of various concentrations of each of the test antibodies (antibodies purified from hybridoma or humanized antibodies) diluted with sample dilution solution were added, and incubated in an incubator at 37° C. for 1 hours. After the incubation was finished, the plate was washed for 3 times with PBST, 50 μl/well of HRP-labeled goat anti-mouse secondary antibody (Jackson Immuno Research, Cat No. 115-035-003) or goat anti-human secondary antibody (Jackson Immuno Research, Cat No. 109-035-003) diluted with sample dilution solution was added, and incubated at 37° C. for 1 hour. The plate was washed for 3 times with PBST, 50 μl/well of TMB chromogenic substrate (KPL, Cat No. 52-00-03) was added, incubated at room temperature for 5-10min, and 50 μl/well of 1 M H₂SO₄ was added to stop the reaction. The absorbance value was read by a microplate reader (Molecular Devices, VERSA max) at a wavelength of 450 nm, and the data was analyzed with GraphPad Prism 5. The binding of CTGF antibody to human CTGF protein was calculated as EC50 value.

Row | Binder | EC50 [1] | EC50 [2]
1 | Hu147-22wk (antibody, human IgG1, kappa, V domains shown) VH: EVQLVESGGGLVQPGGSLRLSCAASGFTFNTYAMNWVRQAPGKGLEWVARIRTKSNNYATYYADSVKDRFTISRDDSKNSLYLQMNSLKTEDTAVYYCVETGFAYWDQGTLVTVSS VL: EIVLTQSPATLSLSPGERATLSCSASSSVSYMHWFQQKPGQSPKLLIYSTSNLASGIPARFSGSGSGTDYTLTISSLEPEDFAVYYCQQRSSYPLTFGQGTKLEIKR | 0.336 nM | 0.056 nM
2 | Hu147-11wk (antibody, human IgG1, kappa, V domains shown) VH: EVQLVESGGGLVQPGGSLRLSCAASGFTFSTYAMNWVRQAPGKGLEWVGRIRTKSNNYATYYADSVKDRFTISRDDSKNSLYLQMNSLKTEDTAVYYCVETGFAYWDQGTLVTVSS VL: EIVLTQSPATLSLSPGERATLSCSASSSVSYMHWFQQKPGQSPRLLIYSTSNLASGIPARFSGSGSGTDYTLTISSLEPEDFAVYYCQQRSSYPLTFGQGTKLEIKR | 0.228 nM | 0.045 nM
3 | Hu147-32wk (antibody, human IgG1, kappa, V domains shown) VH: EVQLVESGGGLVQPGGSLRLSCAASGFSFNTYAMNWVRQAPGKGLEWVARIRTKSNNYATYYADSVKDRFTISRDDSESSLYLQMNSLKTEDTAVYYCVETGFAYWDQGTLVTVSS VL: EIVLTQSPATLSLSPGERATLSCSASSSVSYMHWFQQKPGQSPKLLIYSTSNLASGIPARFSGSGSGTDYTLTISSLEPEDFAVYYCQQRSSYPLTFGQGTKLEIKR | 0.349 nM | 0.063 nM
4 | Hu147-13wk (antibody, human IgG1, kappa, V domains shown) VH: EVQLVESGGGLVQPGGSLRLSCAASGFTFSTYAMNWVRQAPGKGLEWVGRIRTKSNNYATYYADSVKDRFTISRDDSKNSLYLQMNSLKTEDTAVYYCVETGFAYWDQGTLVTVSS VL: EIVLTQSPATLSLSPGERATLSCSASSSVSYMHWFQQKPGQSPKLWIYSTSNLASGVPARFSGSGSGTDYTLTISSLEPEDFAVYYCQQRSSYPLTFGQGTKLEIKR | 0.127 nM | 0.043 nM
5 | Hu147-33wk (antibody, human IgG1, kappa, V domains shown) VH: EVQLVESGGGLVQPGGSLRLSCAASGFSFNTYAMNWVRQAPGKGLEWVARIRTKSNNYATYYADSVKDRFTISRDDSESSLYLQMNSLKTEDTAVYYCVETGFAYWDQGTLVTVSS VL: EIVLTQSPATLSLSPGERATLSCSASSSVSYMHWFQQKPGQSPKLWIYSTSNLASGVPARFSGSGSGTDYTLTISSLEPEDFAVYYCQQRSSYPLTFGQGTKLEIKR | 0.258 nM | 0.054 nM
6 | Hu147-31wk (antibody, human IgG1, kappa, V domains shown) VH: EVQLVESGGGLVQPGGSLRLSCAASGFSFNTYAMNWVRQAPGKGLEWVARIRTKSNNYATYYADSVKDRFTISRDDSESSLYLQMNSLKTEDTAVYYCVETGFAYWDQGTLVTVSS VL: EIVLTQSPATLSLSPGERATLSCSASSSVSYMHWFQQKPGQSPRLLIYSTSNLASGIPARFSGSGSGTDYTLTISSLEPEDFAVYYCQQRSSYPLTFGQGTKLEIKR | 0.32 nM | 0.056 nM
7 | Hu147-23wk (antibody, human IgG1, kappa, V domains shown) VH: EVQLVESGGGLVQPGGSLRLSCAASGFTFNTYAMNWVRQAPGKGLEWVARIRTKSNNYATYYADSVKDRFTISRDDSKNSLYLQMNSLKTEDTAVYYCVETGFAYWDQGTLVTVSS VL: EIVLTQSPATLSLSPGERATLSCSASSSVSYMHWFQQKPGQSPKLWIYSTSNLASGVPARFSGSGSGTDYTLTISSLEPEDFAVYYCQQRSSYPLTFGQGTKLEIKR | 0.2 nM | 0.058 nM
8 | Hu147-21wk (antibody, human IgG1, kappa, V domains shown) VH: EVQLVESGGGLVQPGGSLRLSCAASGFTFNTYAMNWVRQAPGKGLEWVARIRTKSNNYATYYADSVKDRFTISRDDSKNSLYLQMNSLKTEDTAVYYCVETGFAYWDQGTLVTVSS VL: EIVLTQSPATLSLSPGERATLSCSASSSVSYMHWFQQKPGQSPRLLIYSTSNLASGIPARFSGSGSGTDYTLTISSLEPEDFAVYYCQQRSSYPLTFGQGTKLEIKR | 0.247 nM | 0.067 nM
